Bridge positions count the residues as written; N and C are the ends. Square brackets hold non-standard residues; d marks the D form. Primed or numbered codes have the meaning given here. Side chains are listed from the residue outwards. Ends that are not written are not given here. * marks the point of attachment. Tyr(3-Cl) = N[C@@H](Cc1ccc(O)c(Cl)c1)C(=O)O; Dip = N[C@H](C(=O)O)C(c1ccccc1)c1ccccc1; Phe(4-NH2) = Nc1ccc(C[C@H](N)C(=O)O)cc1; Gd^T(3) = GdDTPA attached via thiourea; d1Nal = N[C@H](Cc1cccc2ccccc12)C(=O)O; Pen = CC(C)(S)[C@H](N)C(=O)O; Gd^T = not defined here; Gd^T″ = GdDTPA-thiourea; Cbz = O=C(OCc1ccccc1)*; Dap = NC[C@H](N)C(=O)O
Tests used:
[1] = molecular target: rat collagen, acid soluble, type I, rat tail (Upstate 08-115) (rat) (UniProt P02454); assay: dried collagen assay
Sequence of rat collagen, acid soluble, type I, rat tail (Upstate 08-115) (rat) (P02454 152-1207, chain 1 of 2): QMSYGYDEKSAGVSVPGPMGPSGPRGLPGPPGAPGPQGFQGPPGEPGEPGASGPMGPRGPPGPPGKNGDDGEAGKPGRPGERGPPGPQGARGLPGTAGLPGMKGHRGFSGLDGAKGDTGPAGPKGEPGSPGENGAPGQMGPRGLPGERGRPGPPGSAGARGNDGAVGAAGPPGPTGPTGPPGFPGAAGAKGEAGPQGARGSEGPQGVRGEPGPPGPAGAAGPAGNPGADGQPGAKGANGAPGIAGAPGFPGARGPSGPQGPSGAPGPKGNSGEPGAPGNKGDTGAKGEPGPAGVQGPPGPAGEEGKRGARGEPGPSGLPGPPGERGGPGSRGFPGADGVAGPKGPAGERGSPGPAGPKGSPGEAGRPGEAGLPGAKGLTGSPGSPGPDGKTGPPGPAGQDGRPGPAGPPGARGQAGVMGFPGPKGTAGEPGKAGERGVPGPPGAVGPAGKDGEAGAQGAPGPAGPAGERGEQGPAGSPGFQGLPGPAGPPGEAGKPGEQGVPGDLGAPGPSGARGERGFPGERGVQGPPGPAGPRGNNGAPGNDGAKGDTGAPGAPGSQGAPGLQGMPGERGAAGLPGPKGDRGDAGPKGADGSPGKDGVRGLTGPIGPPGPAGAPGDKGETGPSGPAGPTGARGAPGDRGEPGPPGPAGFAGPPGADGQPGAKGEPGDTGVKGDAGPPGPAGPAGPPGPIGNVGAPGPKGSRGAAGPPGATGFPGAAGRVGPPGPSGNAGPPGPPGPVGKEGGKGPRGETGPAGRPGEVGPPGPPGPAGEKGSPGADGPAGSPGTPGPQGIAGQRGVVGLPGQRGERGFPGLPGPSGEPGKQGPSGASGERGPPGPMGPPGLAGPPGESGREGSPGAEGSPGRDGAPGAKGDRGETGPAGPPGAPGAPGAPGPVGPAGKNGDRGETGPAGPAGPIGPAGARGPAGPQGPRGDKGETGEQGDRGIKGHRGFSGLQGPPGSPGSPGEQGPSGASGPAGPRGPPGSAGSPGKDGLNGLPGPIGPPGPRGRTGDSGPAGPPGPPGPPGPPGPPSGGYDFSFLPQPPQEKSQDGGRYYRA
Sequence of rat collagen, acid soluble, type I, rat tail (Upstate 08-115) (rat) (P02466 86-1125, chain 2 of 2, further chain): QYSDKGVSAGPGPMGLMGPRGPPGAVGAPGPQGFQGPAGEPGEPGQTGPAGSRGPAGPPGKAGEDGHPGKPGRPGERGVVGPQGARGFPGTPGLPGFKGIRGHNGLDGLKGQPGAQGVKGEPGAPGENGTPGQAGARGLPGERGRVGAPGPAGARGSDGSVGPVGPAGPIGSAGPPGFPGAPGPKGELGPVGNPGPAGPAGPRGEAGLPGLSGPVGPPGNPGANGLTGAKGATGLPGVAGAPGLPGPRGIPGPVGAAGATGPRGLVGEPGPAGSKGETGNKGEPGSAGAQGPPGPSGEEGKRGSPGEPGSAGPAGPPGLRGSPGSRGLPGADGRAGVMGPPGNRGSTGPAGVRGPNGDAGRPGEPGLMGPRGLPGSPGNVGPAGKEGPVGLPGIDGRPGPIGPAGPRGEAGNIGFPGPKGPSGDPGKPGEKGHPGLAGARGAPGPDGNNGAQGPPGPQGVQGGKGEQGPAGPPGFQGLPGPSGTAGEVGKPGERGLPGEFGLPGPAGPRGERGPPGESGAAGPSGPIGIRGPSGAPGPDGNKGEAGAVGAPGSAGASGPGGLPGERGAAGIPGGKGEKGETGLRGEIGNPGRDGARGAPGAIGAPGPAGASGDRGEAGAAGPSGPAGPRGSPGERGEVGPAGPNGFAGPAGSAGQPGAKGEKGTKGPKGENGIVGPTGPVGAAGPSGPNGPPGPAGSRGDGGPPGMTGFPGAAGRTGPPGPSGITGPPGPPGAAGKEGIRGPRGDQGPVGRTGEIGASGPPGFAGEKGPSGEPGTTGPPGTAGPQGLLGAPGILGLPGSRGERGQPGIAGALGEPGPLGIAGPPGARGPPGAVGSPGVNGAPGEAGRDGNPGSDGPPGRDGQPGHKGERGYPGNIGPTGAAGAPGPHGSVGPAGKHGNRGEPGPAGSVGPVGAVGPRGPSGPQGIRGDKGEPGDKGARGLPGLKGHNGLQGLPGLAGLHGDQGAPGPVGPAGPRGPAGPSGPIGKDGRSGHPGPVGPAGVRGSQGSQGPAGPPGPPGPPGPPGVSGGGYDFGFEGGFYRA

[2] = molecular target: human collagen type I, acid soluble, extracted from placenta (Sigma C7774) (human) (UniProt P02452); assay: dried collagen assay
Sequence of human collagen type I, acid soluble, extracted from placenta (Sigma C7774) (human) (P02452 162-1218 limits assumed, chain 1 of 2): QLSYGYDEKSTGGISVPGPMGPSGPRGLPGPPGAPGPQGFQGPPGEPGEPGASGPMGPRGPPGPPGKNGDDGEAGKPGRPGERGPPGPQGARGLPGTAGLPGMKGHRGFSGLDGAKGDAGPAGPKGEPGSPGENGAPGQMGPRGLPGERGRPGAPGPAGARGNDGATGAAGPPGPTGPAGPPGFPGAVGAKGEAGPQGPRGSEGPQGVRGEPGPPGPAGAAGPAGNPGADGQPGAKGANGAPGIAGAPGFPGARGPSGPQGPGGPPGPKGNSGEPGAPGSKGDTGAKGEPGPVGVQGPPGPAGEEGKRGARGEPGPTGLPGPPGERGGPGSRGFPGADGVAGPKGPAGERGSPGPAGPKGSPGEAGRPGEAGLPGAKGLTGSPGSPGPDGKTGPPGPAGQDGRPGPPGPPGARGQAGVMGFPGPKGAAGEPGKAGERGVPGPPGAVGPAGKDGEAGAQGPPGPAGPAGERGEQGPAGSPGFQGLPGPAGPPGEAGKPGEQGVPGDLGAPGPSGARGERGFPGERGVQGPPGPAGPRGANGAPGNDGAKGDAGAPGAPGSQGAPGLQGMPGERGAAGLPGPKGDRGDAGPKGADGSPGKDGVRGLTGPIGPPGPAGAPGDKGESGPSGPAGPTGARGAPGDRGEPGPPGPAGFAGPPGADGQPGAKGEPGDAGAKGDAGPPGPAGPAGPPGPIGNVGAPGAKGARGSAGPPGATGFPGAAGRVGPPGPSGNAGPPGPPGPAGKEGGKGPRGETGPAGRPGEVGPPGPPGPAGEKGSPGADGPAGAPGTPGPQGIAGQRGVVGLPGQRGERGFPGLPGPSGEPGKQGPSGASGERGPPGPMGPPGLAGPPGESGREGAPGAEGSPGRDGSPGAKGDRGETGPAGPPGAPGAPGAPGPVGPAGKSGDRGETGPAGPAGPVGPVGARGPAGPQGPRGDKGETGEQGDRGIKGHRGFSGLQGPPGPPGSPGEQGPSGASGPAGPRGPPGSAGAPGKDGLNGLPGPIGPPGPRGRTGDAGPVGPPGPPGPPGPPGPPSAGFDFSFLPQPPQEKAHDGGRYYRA
Sequence of human collagen type I, acid soluble, extracted from placenta (Sigma C7774) (human) (P08123 80-1119 limits assumed, chain 2 of 2, further chain): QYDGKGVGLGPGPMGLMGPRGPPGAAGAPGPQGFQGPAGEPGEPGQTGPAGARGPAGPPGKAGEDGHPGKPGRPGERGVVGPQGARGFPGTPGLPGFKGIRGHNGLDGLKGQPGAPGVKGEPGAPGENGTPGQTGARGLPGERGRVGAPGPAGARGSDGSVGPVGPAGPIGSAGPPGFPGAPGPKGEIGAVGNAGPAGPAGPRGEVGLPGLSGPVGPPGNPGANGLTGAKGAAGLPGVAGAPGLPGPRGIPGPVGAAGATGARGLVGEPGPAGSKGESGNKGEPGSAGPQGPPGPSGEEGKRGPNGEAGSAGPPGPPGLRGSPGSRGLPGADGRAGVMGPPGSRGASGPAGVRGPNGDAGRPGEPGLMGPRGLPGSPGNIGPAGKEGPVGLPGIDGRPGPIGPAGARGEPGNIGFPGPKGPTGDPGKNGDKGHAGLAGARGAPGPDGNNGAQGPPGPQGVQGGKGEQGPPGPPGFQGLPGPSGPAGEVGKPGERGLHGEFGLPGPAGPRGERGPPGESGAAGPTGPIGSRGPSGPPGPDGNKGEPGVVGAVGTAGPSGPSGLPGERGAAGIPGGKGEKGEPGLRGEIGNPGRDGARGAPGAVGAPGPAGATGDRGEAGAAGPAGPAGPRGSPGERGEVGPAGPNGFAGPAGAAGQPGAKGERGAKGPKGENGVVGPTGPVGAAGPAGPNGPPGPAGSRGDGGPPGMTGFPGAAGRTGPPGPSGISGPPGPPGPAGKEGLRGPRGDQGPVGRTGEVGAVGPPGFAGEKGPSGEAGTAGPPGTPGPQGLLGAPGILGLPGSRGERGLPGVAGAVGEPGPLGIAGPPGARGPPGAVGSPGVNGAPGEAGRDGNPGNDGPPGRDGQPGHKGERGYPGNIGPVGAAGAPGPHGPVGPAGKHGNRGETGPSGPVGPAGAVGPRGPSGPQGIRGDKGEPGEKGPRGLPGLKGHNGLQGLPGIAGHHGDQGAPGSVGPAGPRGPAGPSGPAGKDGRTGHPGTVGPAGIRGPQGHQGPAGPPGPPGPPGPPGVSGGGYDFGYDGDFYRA

For {Gd^T″}-GQWTCSGDEYAWHCNY[dE] (disulfide 5-14 (inferred); not fully specified (C-terminus)) [Compound ID 832], the % bound [1] was 4%.

YHACYQAGCYIW (disulfide 4-9 (inferred)) [SEQ ID NO 107] gave a % bound [1] of 6%.

Binder {Gd^T″}-GK([Gly-Gd^T″])WHCTTLFPHHVCLYG (disulfide 5-14 (inferred)) [Compound ID 966] has a % bound [1] of 8%.

Work on LWTCSMDRNYDWVCGEK (disulfide 4-14 (inferred)) [SEQ ID NO 82] yielded a % bound [2] of 3%.

{Gd^T″}-GQWHCTTD[Phe(4-NH2)](Gd^T″)PHHYCLYG (disulfide 5-14 (inferred)) [Compound ID 885] was tested, and the % bound [1] was 9%.

With {Gd^T}-GQWACSGDEYTWHCNYE (disulfide 5-14 (inferred); not fully specified (C-terminus); reading uncertain) [Compound ID 840] the % bound [1] was 3%.

With GWTCSQPGANVWNCTMQ (disulfide 4-14 (inferred)) [SEQ ID NO 85] the % bound [2] was 3%.

For PWWCHEMPSMCFGF (disulfide 4-11 (inferred)) [SEQ ID NO 3], the % bound [2] was 2%.

{Gd^T″}-GQWHCT[dN]RFPHHYCLYG (disulfide 5-14 (inferred); not fully specified (C-terminus)) [Compound ID 897] showed a % bound [2] of 4%.

KWECVHTKGEWYCETK (disulfide 4-13 (inferred)) [SEQ ID NO 65] was tested, and the % bound [2] was 7%.

With {Gd^T(3)}-GQWHCTTRFPHHY[Pen]LYG (disulfide 5-14; not fully specified (C-terminus)) [Compound ID 906] the % bound [1] was 5%.

In the case of HWSCDLAMDNEWFCSTK (disulfide 4-14 (inferred)) [SEQ ID NO 84], the % bound [2] is reported as 3%.

In the case of FSECVWVNAYQCEYF (disulfide 4-12 (inferred)) [SEQ ID NO 113], the % bound [2] is reported as 3%.

Work on AKKCWYNDGGHLRCRTL (disulfide 4-14 (inferred)) [SEQ ID NO 99] yielded a % bound [2] of 3%.

Binder {Gd^T″}-GQWHCTDRFPHHYCLYG (disulfide 5-14 (inferred)) [Compound ID 936] has a % bound [1] of 5%.

B1: SEQ ID NO 169 (peptide)
peptide: QWTCSG[dD]EYTWHCNYE
modifications: disulfide 4-13 (inferred); not fully specified (N-terminus); printed as QWTCSGdEYTWHCNYE
For B1, the % bound [1] was 4%.

Binder QWFCEMDEYGKWNCGMM (disulfide 4-14 (inferred)) [SEQ ID NO 81] has a % bound [2] of 3%.

In the case of YHACYQAGCWAW (disulfide 4-9 (inferred)) [SEQ ID NO 137], the % bound [1] is reported as 7% and the % bound [2] is reported as 4%.

In the case of {Gd^T″}-GK([Gly-Gd^T″])WHCTTYFPHHYCL[Dip]G (disulfide 5-14 (inferred); not fully specified) [Compound ID 967], the % bound [1] is reported as 4%.

B2: SEQ ID NO 167 (peptide)
peptide: QWT[dC]SGDEYTWHCNYE
modifications: disulfide 4-13 (inferred); not fully specified (N-terminus, C-terminus); printed as QWTcSGDEYTWHCNYE
Work on B2 yielded a % bound [2] of 4%.

GWSCHGDAADWPCQWS (disulfide 4-13 (inferred)) [SEQ ID NO 38] was tested, and the % bound [2] was 6%.

RWSCVLDADGWVCSDN (disulfide 4-13 (inferred)) [SEQ ID NO 66] gave a % bound [2] of 6%.

Binder YHACYQAGCYIY (disulfide 4-9 (inferred)) [SEQ ID NO 108] has a % bound [2] of 5%.

For SWYCNNGSYGQWHCEHR (disulfide 4-14 (inferred)) [SEQ ID NO 80], the % bound [2] was 6%.

In the case of GWQCSGDASVWNCDWI (disulfide 4-13 (inferred)) [SEQ ID NO 39], the % bound [2] is reported as 6%.

GQWTCSGDEYTAHCNYE (disulfide 5-14 (inferred); not fully specified (C-terminus)) [SEQ ID NO 147] showed a % bound [2] of 5%.

Work on {Gd^T(3)}-GQWHCTTRFPHH[d1Nal]CLYG (disulfide 5-14; not fully specified (C-terminus)) [Compound ID 904] yielded a % bound [1] of 3%.

{Gd^T″}-GQWHCT[dR]RFPHHYCLYG (disulfide 5-14 (inferred); not fully specified (C-terminus)) [Compound ID 900] gave a % bound [2] of 4%.

With {Gd^T″}-GQWHCTTRFPHH[dR]CLYG (disulfide 5-14 (inferred); not fully specified (C-terminus)) [Compound ID 902] the % bound [2] was 7%.

{Gd^T″}-GQWTCSGDEYTWACNYE (disulfide 5-14 (inferred); not fully specified (C-terminus)) [Compound ID 833] gave a % bound [1] of 4%.

GWSCHSMDMQWHCDFS (disulfide 4-13 (inferred)) [SEQ ID NO 67] was tested, and the % bound [2] was 5%.

In the case of SWSCGGDHNAWKCQYS (disulfide 4-13 (inferred)) [SEQ ID NO 36], the % bound [2] is reported as 7%.

B3: SEQ ID NO 159 (peptide)
peptide: YHACYQAG[dC]WIW
modifications: disulfide 4-9 (inferred); not fully specified (C-terminus); printed as YHACYQAGcWIW
Binder B3 has a % bound [2] of 7%.

Binder {Gd^T″}-GQWHCT[dS]RFPHHYCLYG (disulfide 5-14 (inferred); not fully specified (C-terminus)) [Compound ID 898] has a % bound [2] of 5%.

In the case of {Gd^T″}-GQWHCTTD[Tyr(3-Cl)]PHHYCLYG (disulfide 5-14 (inferred); not fully specified (C-terminus)) [Compound ID 895], the % bound [2] is reported as 7%.

With LWNCHGTDANWKCVLN (disulfide 4-13 (inferred)) [SEQ ID NO 37] the % bound [2] was 7%.

Binder GWACNTTSKGDWECTNL (disulfide 4-14 (inferred)) [SEQ ID NO 83] has a % bound [2] of 3%.

Cbz-GQWHCTK(Gd^T″)RFPHHYCLYG (disulfide 5-14 (inferred)) [Compound ID 940] showed a % bound [1] of 8%.

{Gd^T″}-GQWHCTTRFPHH[dT]CLYG (disulfide 5-14 (inferred); not fully specified (C-terminus)) [Compound ID 905] was tested, and the % bound [2] was 6%.

Work on YHACAQAGCWIW (disulfide 4-9 (inferred)) [SEQ ID NO 133] yielded a % bound [1] of 5% and a % bound [2] of 4%.

With {Gd^T″}-DWTCS[dS]DEYTWHCNYE (disulfide 4-13 (inferred); not fully specified (C-terminus)) [Compound ID 836] the % bound [1] was 8%.

{Gd^T″}-GQWHCTTDFPH[Dap]YCLYG (disulfide 5-14) [Compound ID 886] gave a % bound [2] of 8%.

Work on SWHCFLENHHWMCSDH (disulfide 4-13 (inferred)) [SEQ ID NO 68] yielded a % bound [2] of 5%.

WQVCADSPGVITYCYTY (disulfide 4-14 (inferred)) [SEQ ID NO 98] was tested, and the % bound [2] was 5%.

Work on GQWTCSADEYTWHCNYE (disulfide 5-14 (inferred)) [SEQ ID NO 142] yielded a % bound [1] of 6%.

For {Gd^T}-DWTCS[dL]DEYTWHCNYE (disulfide 4-13 (inferred); not fully specified (C-terminus); reading uncertain) [Compound ID 847], the % bound [1] was 7%.

B4: SEQ ID NO 171 (peptide)
peptide: QWTCSGDE[dY]TWHCNYE
modifications: disulfide 4-13 (inferred); not fully specified (N-terminus); printed as QWTCSGDEyTWHCNYE
B4 was tested, and the % bound [1] was 6%.

B5: SEQ ID NO 174 (peptide)
peptide: QWTCSGDEYTW[dH]CNYE
modifications: disulfide 4-13 (inferred); not fully specified (N-terminus); printed as QWTCSGDEYTWhCNYE
B5 showed a % bound [2] of 5%.

Source: patent US20080044360A1
